From patent publication US20090304686A1, “INTERFERING IN ACTIVATION OF AN IMMUNE CELL BY INFLUENCING INTERACTION OF LAIR AND COLLAGEN” (UNIVERSOTAIR MEDISCH CENTRUM UTRECHT, priority 2006, published 2009)

Assays:
[1] = target: collagen I (purified, Sigma; acid-soluble human collagen type I in BIAcore) (human) (UniProt P02452)
[2] = target: collagen III (purified, Sigma; acid-soluble human collagen type III in BIAcore) (human) (UniProt P02461)
[3] = target: collagen I (purified, Sigma; acid-soluble human collagen type I in BIAcore) (human) (UniProt P02452); assay: BIAcore, equilibrium binding to immobilized human collagen I
[4] = target: collagen III (purified, Sigma; acid-soluble human collagen type III in BIAcore) (human) (UniProt P02461); assay: BIAcore, equilibrium binding to immobilized human collagen III
[5] = target: collagen I (purified, Sigma; acid-soluble human collagen type I in BIAcore) (human) (UniProt P02452); assay: SPR (BIAcore), equilibrium binding to immobilised collagen I
[6] = target: collagen III (purified, Sigma; acid-soluble human collagen type III in BIAcore) (human) (UniProt P02461); assay: SPR (BIAcore), equilibrium binding to immobilised collagen III
[7] = target: collagen I (purified, Sigma; acid-soluble human collagen type I in BIAcore) (human) (UniProt P02452); assay: SPR (BIAcore), biphasic dissociation from collagen I, component Koff1
[8] = target: collagen I (purified, Sigma; acid-soluble human collagen type I in BIAcore) (human) (UniProt P02452); assay: SPR (BIAcore), biphasic dissociation from collagen I, component Koff2
[9] = target: collagen III (purified, Sigma; acid-soluble human collagen type III in BIAcore) (human) (UniProt P02461); assay: SPR (BIAcore), biphasic dissociation from collagen III, component Koff1
[10] = target: collagen III (purified, Sigma; acid-soluble human collagen type III in BIAcore) (human) (UniProt P02461); assay: SPR (BIAcore), biphasic dissociation from collagen III, component Koff2
[11] = target: hLAIR-1-CD3ζ chimera on 2B4 NFAT-GFP reporter cells (human) (UniProt Q6GTX8)
[12] = target: hLAIR-1-CD3ζ chimera on 2B4 NFAT-GFP reporter cells (human) (UniProt Q6GTX8); remark: listed apart in the source

Sequence of collagen III (purified, Sigma; acid-soluble human collagen type III in BIAcore) (human) (P02461 154-1221): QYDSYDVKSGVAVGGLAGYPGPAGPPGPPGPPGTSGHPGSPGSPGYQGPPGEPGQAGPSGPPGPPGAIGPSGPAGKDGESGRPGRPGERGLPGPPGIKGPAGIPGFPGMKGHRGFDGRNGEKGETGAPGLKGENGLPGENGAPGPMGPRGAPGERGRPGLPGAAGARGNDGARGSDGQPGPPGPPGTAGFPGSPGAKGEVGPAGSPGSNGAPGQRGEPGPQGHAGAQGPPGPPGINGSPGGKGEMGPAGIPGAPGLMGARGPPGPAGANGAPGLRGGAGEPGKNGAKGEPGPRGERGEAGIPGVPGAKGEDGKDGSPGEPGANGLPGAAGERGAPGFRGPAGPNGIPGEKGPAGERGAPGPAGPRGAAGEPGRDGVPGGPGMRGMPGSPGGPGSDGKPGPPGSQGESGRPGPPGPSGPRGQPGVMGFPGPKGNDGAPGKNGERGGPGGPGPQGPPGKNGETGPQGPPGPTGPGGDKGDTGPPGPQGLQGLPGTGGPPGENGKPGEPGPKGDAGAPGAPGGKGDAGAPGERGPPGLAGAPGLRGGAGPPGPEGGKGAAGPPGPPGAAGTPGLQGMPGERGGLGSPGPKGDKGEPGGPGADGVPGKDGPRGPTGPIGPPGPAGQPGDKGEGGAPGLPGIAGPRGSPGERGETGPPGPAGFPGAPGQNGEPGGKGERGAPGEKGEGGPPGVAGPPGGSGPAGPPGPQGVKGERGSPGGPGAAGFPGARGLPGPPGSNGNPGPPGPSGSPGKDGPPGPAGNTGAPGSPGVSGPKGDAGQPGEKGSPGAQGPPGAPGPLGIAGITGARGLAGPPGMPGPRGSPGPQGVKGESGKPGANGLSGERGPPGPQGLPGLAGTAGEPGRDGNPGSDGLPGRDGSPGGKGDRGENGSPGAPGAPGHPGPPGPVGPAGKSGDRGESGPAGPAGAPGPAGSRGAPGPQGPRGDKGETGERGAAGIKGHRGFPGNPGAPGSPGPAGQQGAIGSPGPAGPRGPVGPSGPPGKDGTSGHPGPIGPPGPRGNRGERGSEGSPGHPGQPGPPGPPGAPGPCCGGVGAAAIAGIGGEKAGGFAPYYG
Sequence of hLAIR-1-CD3ζ chimera on 2B4 NFAT-GFP reporter cells (human) (Q6GTX8 22-165, change not shown): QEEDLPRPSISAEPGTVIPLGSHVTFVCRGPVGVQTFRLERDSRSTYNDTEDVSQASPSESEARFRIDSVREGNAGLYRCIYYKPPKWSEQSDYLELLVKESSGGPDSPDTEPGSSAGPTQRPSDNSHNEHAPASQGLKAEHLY

“LAIR-2-IgG (human LAIR-2 fused to the Fc region of human IgG1) (from UniProt Q6ISS4 22-152) (Fc fusion)” gave a percentage of GFP-positive hLAIR-1-CD3ζ reporter cells on Collagen I pre-incubated with LAIR-2-IgG (55.0 without block) [1] of 0.5%, a percentage of GFP-positive hLAIR-1-CD3ζ reporter cells on Collagen III pre-incubated with LAIR-2-IgG (45.3 without block) [2] of 8.4% and a Kd [3] of 0.0346 µM. The Kd [4] was 0.0414 µM, the Bmax (mol/mol Col I) [5] was 10.4 and the Bmax (mol/mol Col III) [6] was 10.7. The koff [7] was 0.00083 s⁻¹, the koff [8] was 0.0073 s⁻¹ and the koff [9] was 0.0005 s⁻¹. The koff [10] was 0.0046 s⁻¹.
Substance Control IgG (Fc fusion) has a percentage of GFP-positive hLAIR-1-CD3ζ reporter cells on Collagen I pre-incubated with Control IgG (55.0 without block) [1] of 50.3% and a percentage of GFP-positive hLAIR-1-CD3ζ reporter cells on Collagen III pre-incubated with Control IgG (45.3 without block) [2] of 42.8%.
Substance “collagen I (purified, Sigma; acid-soluble human collagen type I in BIAcore) (from UniProt P02452 162-1218; P08123 80-1119) (ligand)” has a percentage of GFP-positive reporter cells on coated Col I (parental cells 0.3) [11] of 33.8% and a percentage of GFP-positive reporter cells on Collagen I without block (parental cells 0.2) [12] of 55%.
